Tests used:
[1] = target: T1, Soluble IGF-1R (R&D Systems, Cat. # 391-GR) (UniProt P08069 31-935, limits assumed); assay: phage ELISA ratios compared
T1 construct: extracellular domain; bought; also called sIGF-1R

[2] = target: T2, soluble human insulin receptor-immunoglobulin heavy chain chimera (human, UniProt P06213 28-956); assay: phage ELISA ratios compared
T2 construct: extracellular domain; Heterotetramer; also called IR; sIR-Fc; not shown: immunoglobulin heavy chain constant domains replacing the transmembrane and intr

Binder | IGF-1R/IR ratio comparison [1] | IR/IGF-1R ratio comparison [2]
QPAPDGFYSALMKLIGRGGVS [20E2B-3-C8-IGFR] | 8.9 | 
GRTMAVMAAGGPDDPFYHKLSELVQGG [B6Hα-2-D6-IR] |  | 0.2
CCTTEMVVMDARDDPFYHKLSELVTGG [B6Hα-1-B5-IR] |  | 0
TLDGGSFEEQFYDWFVRQLSYRTNPD [H2CA-4-G11-IGFR] | 3.9 | 0.3
SSYGCDGFYLMLFSLGLVASQELEC [20C-3-A1-IGFR] | 13.7 | 
YRGMLVLGRISGGAGKAASERPARIGQKVSAVNFYDWFV [A6L-0-H3-IR] | 13 | 
GFREGNFYEWFQAQVT [E4Dα-4-H2-IR] | 4.1 | 0.2
RAGSSDFHEDFYEWFVRQVSLSLKGK [H2CA-2-B9-IGFR] | 4.2 | 0.2
RGIVAMVEATEVGSDHDPFYHKLSELVQGS [B6Hα-2-C7-IR] |  | 0.1
RGMKEEVLVGGSTDPFYHKLSELLQGS [B6Hα-3-F11-IR] | 11.7 | 
LKDGFYDYFWQRLHLGS [NNRPγ-4-B11-IR] | 15.5 | 0.1
PPLASDLDVQFYGWFVQQVSPPGRGG [H2CA-2-B3-IGFR] | 3.6 | 0.3
APDPSDFQEIFYDWFVRQVSRMPGGG [H2CA-1-A3-IGFR] | 5.1 | 0.2
QPDHSYFYSLLQELVGSEERL [20E2B-4-F9-IGFR] | 7.7 | 
GVRAMSFYDALVSVLGLGPSG [20E2B-1-A6-IGFR] | 16.8 | 0.1
FFYDCLAALLQGVARYHDLCAVEIT [20C-4-C7-IGFR] | 21.8 | < 0.1
VEGRGLFYDLLRQLLARRQNG [20E2B-3-C6-IGFR] | 14.8 | 0.1
EAASLGSQDRNFYDWFVRQVV [A6S-2-D11-IR] | 2.8 | 0.4
PDLHKGFYAQLAQLIRGQLLS [20E2B-3-E3-IGFR] | 13.1 | 0.1
QGGSASFYDAIDRLLRMRIGG [20E2A-4-F11-IGFR] | 14.6 | 0.1
SSCDGAGHESFYEWFVRQVSGCRSV [H2CA-3-C8-IGFR] | 4.8 | 0.2
MMVVDGFYDALHQLVVAQSLG [20E2A-3-D10-IGFR] | 3.9 | 
RGQSDAFYSGLWALIGLSDG [R20β-4-A6-IR] | 17.3 | 0.1
FYDAIDQLVRGSARAGGTRD [R20α-3-20E2-IR] | 12.9 | 0.1
RCGRELYHSTFYDWFDRQVAGRTCPS [H2CA-1-A7-IGFR] | 3.7 | 0.3
GGTKAVAKVGTRDDPFYHKLSELLQGS [B6Hα-4-G8-IR] | 3.6 | 
RGAVAGFHDQFYDWFDRQVSRVHKFG [H2CA-4-H9-IGFR] | 3 | 
GFREGSFYDWFQAQVT [E4Dα-2-D11-IR] | 3.4 | 0.3

Binder | IGF-1R/IR ratio comparison [1] | IR/IGF-1R ratio comparison [2]
RGCNDDGGKGWSDDPFYHKLSELICGG [B6Hα-1-A2-IR] |  | 0.1
LGYQEPFQQNFYDWFVRQVSGAENAG [H2CA-3-E8-IGFR] | 2.9 | 0.3
QAVQPGFHEEFYDWFVRQVSTGVGGG [H2CA-4-H4-IGFR] | 4.2 | 0.2
VERSASSQDGNFYDWFVVQIR [A6S-2-D1-IR] | 2.6 | 0.4
FYVQQWGHENFYDWFDRQVSQSGGAG [H2CA-4-F1-IGFR] | 3.8 | 0.3
LRRQAPVEENFYDWFVRQVSGDRVGG [H2CA-3-D7-IGFR] | 3.7 | 0.3
TSEVQRRSQDNFYDWFVAQVA [A6S-3-E2-IR] | 2.5 | 0.4
LQPCSGFYECIERLIGVKLSG [20E2Bβ-4-G7-IR] | 15.8 | 
KLHNLMFYYGLQRLVWGAGLG [20E2B-4-H3-IGFR] | 13.9 | 0.1
SQAGSAFYAWFDQVLRTVHSA [20E2Bβ-4-G6-IR] | 3.3 | 
HLADGQFHEKFYDWFERQISSRCNDC [H2CA-3-E11-IGFR] |  | 0.5
GCVVEWQKWHGASDPFYHKLSELGGCS [B6Hα-3-F10-IR] | 4.6 | 
GAPVDQLHEDFYDWFVRQVSQAATG [H2CA-2-B2-IGFR] | 3.5 | 0.3
YRGMLVLGRSSDGAGKVAFERPARIGQTVFAVNFYDWFV [A6L-0-E6-IR] | 17 | 
RLFYCGIQALGANLGYSGCV [R20α-4-20A12-IR] | 16.6 | 0.1
AICDAGFHEHFYDWFALQVSDCGRQS [H2CA-2-B11-IGFR] | 3 | 0.3
GGTEVDFYRALERLVRGQLGL [20E2B-3-D8-IGFR] | 11.3 | 
VNQSGSIHENFYDWFERQVSHQRGVR [H2CA-4-F10-IGFR] | 5.9 | 0.2
RCEEKQAEVGPSSDPFYHKMSELLGCR [B6Hα-3-E9-IR] | 14.2 | 
QSPVGSSHEDFYDWFFRQVAQSGAHQ [H2CA-3-D6-IGFR] | 4 | 0.3
CCLLCRFQQNFYDWFVCQGISRLRPL [H2CA-2-B4-IGFR] | 3.6 | 0.3
LRIANLFYQRLWDLAFGGGG [20E2B-3-E8-IGFR] | 11.1 | 
FRTLAAQHDSFYDWFDRQVSGAAGER [H2CA-3-C11-IGFR] | 2.1 | 0.5
NYRRQVFNGNFYDWFDRQVFSLVTPG [H2CA-3-D8-IGFR] | 4 | 0.3
SSIGGGFHENFYDWFSRQLSQSPPLK [H2CA-4-F7-IGFR] | 4.1 | 0.2
IIGGFYSYFNSVLRLGT [NNRPγ-4-A1-IR] | 6 | 
TFYSCLASLLTGTPQPNRGPWERCR [20C-3-G3-IGFR] | 27 | < 0.1

— US6875741 (Novo Nordisk, dated 2005)
